# According to patent US20060287236A1:
# Biological target: transferrin receptor (TfR) (human) (UniProt P02786)
# Assay: HeLa cell based 125I-transferrin assay
# transferrin receptor (TfR) (human), sequence (P02786 whole entry): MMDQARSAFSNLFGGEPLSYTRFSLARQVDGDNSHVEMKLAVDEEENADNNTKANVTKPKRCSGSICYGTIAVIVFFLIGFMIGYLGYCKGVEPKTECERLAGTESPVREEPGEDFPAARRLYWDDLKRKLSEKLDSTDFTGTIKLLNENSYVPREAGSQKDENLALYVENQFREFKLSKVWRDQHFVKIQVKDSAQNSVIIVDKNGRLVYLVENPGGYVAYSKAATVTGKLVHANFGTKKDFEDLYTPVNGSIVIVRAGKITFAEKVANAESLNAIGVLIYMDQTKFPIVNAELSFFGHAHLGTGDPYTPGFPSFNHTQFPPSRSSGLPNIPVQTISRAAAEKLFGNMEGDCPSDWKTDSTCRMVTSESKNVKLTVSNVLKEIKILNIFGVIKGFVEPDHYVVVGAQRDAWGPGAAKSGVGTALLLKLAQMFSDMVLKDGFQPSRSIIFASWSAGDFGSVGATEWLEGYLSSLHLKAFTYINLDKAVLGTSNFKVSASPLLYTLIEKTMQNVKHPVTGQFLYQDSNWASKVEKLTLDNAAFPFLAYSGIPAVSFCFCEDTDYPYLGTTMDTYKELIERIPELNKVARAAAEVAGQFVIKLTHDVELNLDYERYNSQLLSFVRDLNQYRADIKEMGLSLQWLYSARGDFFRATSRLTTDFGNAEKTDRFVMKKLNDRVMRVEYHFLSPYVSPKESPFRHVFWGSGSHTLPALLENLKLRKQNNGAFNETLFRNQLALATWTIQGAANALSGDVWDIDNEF
substance,measurement,value
soluble H63D-HFE/β2m heterodimer (from UniProt P61769 21-119),K,105 nM
